Paper PMC10684670

B1: rhB7-H6-hFc recombinant protein, wild type [modified: N-linked glycans (removed on the plate by PNGase F in assay a2); N-linked glycans (removed on the plate by PNGase F in assay a2)] [human] / rhNKp30-his protein [human] (parent)
chain 1: LWVSQPPEIRTLEGSSAFLPCSFNASQGRLAIGSVTWFRDEVVPGKEVRNGTPEFRGRLAPLASSRFLHDHQAELHIRDVRGHDASIYVCRVEVLGLGVGTGNGTRLVVEKEHPQLG
chain 2: DLKVEMMAGGTQITPLNDNVTIFCNIFYSQPLNITSMGITWFWKSLTFDKEVKVFEFFGDHQEAFRPGAIVSPWRLKSGDASLRLPGIQLEEAGEYRCEVVVTPLKAQGTVQLEVVASPASRLLLDQVGMKENEDKYMCESSGFYPEAINITWEKQTQKFPHPIEISEDVITGPTIKNMDGTFNVTSCLKLNSSQEDPGTVYQCVVRHASLHTPLRSNFTLTAARHSLSETEKTDNFS
B2: B7-H6, wild type, stably expressed on B7-H6 knockout 293T cells [modified: N-linked glycans at N43, N57, N174, N208, N216 and N242; N-linked glycans at N43, N57, N174, N208, N216 and N242] [human] / rhNKp30-his protein [human] (parent)
chain 1: B1 chain 1
chain 2: DLKVEMMAGGTQITPLNDNVTIFCNIFYSQPLNITSMGITWFWKSLTFDKEVKVFEFFGDHQEAFRPGAIVSPWRLKSGDASLRLPGIQLEEAGEYRCEVVVTPLKAQGTVQLEVVASPASRLLLDQVGMKENEDKYMCESSGFYPEAINITWEKQTQKFPHPIEISEDVITGPTIKNMDGTFNVTSCLKLNSSQEDPGTVYQCVVRHASLHTPLRSNFTLTAARHSLSETEKTDNFSIHWWPISFIGVGLVLLIVLIPWKKICNKSSSAYTPLKCILKHWNSFDTQTLKKEHLIFFCTRAWPSYQLQDGEAWPPEGSVNINTIQQLDVFCRQEGKWSEVPYVQAFFALRDNPDLCQCCRIDPALLTVTSGKSIDDNSTKSEKQTPREHSDAVPDAPILPVSPIWEPPPATTSTTPVLSSQPPTLLLPLQ

Variants of: B1
Assay: ELISA
Details: with rhNKp30-his protein [human]; no PNGase F pretreatment; read at the highest NKp30 conc. tested, 2 (unit not printed in this panel); parent: 1.7; read off a plot

Q: How did the response turn out when chain 2 N33Q was run?
A: The response was 1.5 OD.

Same assay, conditions: with rhNKp30-his protein [human]; pretreated with denatured PNGase F; read at the highest NKp30 conc. tested, 2 (unit not printed in this panel); read off a plot

Q: chain 2 N33Q was tested. Which response did it give?
A: The response was 1.4 OD.

Variants of: B2
Assay: flow cytometry on cells
Details: with rhNKp30-his protein [human]; 293T cells stably expressing B7-H6, stained with his-tagged NKp30; parent: 1; read off a plot

Q: chain 2 N19Q was tested. Which ratio to parent did it give?
A: The ratio to parent was 0.14.

Q: How did the ratio to parent turn out when chain 2 N33Q was run?
A: The ratio to parent was 0.57.

Q: For chain 2 N150Q, which ratio to parent is on record?
A: Its ratio to parent is 0.8.

Q: For chain 2 N184Q, which ratio to parent is on record?
A: The ratio to parent was 0.22.

Q: How did the ratio to parent turn out when chain 2 N192Q was run?
A: Its ratio to parent is 0.42.

Q: For chain 2 N218Q, which ratio to parent is on record?
A: Its ratio to parent is 0.86.
